This note sets out measurements from patent publication US20230212293A1 (published 2023).

Test [1] has as its target T1, PD-1 on PD-1 reporter Jurkat cells (PATHHUNTER Checkpoint Signaling Assay) (UniProt Q15116 25-288). Put plainly: cell-based or functional assay.
The target of test [2] is T1, PD-1 on PD-1 reporter Jurkat cells …. Put plainly: cell-based or functional assay. The source holds these as a separate data set.
The target of test [3] is T2, Recombinant mouse PD-1 extracellular domain (with an immunoglobulin Fc region or a His tag) (mouse, UniProt Q02242 25-169).
T2 construct: extracellular domain; Coated on ELISA plates; not shown: either an immunoglobulin Fc region or a His tag
T2 sequence (looked up): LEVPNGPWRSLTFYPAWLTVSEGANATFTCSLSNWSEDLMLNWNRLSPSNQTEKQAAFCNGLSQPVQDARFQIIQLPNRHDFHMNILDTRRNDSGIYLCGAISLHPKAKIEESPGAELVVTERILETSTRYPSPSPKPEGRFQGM
Kind of test: ELISA, plate-coated recombinant PD-1 extracellular domain. On the procedure: (§1) An enzyme-linked immunosorbent assay (ELISA) was performed to assess the binding of anti-PD-1 antibodies to human, cynomolgus monkey, or mouse PD-1. Recombinant proteins containing the extracellular domain of PD-1 together with either an immunoglobulin Fc region or a His tag were used to coat wells of standard 96 well ELISA plates by overnight incubation at 4° C. Unbound recombinant protein was removed, Pierce SUPERBLOCK™ T20 was added, and plates were incubated for 10 minutes at room temperature with shaking. Plates were washed with phosphate buffered saline-TWEEN-20 (PBST), and anti-PD-1 antibodies were added in phosphate buffered saline (PBS) with 1% bovine serum albumin (BSA) and incubated for one hour at room temperature with shaking. Plates were then washed in PBST and incubated with horse radish peroxidase (HRP)-conjugated secondary antibodies in F(ab′)2 directed to either human IgG or human IgM. After one hour, plates were washed again with PBST, signal was developed with SUPERSIGNAL™ ELISA Pico substrate, and an ENVISION® luminometer (PerkinElmer) was used to record signal. Data were analyzed with […] PRISM®.

In test [4] the target is T3, Mouse PD-1 overexpressed on HEK293 cells (mouse, UniProt Q02242 25-288).
T3 construct: whole, on cells
T3 sequence (looked up): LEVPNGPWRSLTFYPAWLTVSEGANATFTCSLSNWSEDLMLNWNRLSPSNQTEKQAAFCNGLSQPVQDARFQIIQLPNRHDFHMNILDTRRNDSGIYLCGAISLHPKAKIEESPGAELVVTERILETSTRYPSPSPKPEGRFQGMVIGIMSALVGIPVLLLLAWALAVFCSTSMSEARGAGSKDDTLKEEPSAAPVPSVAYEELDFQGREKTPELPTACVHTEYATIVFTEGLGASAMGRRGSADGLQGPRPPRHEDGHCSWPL
Kind of test: flow cytometry on HEK293 cells overexpressing mouse PD-1. On the procedure:
(§2) HEK293 cells were modified to overexpress human or mouse PD-1. Cells were expanded in puromycin-containing media to maintain selection, and aliquoted to 96 well V-bottom plates for antibody staining and flow cytometric analysis. Anti-PD-1 antibodies were added to cells in BD stain buffer with fetal bovine serum (BD Biosciences, cat. #554656) and incubated on ice for 20 minutes. Cells were then washed, and R-phycoerythrin (PE)-labeled anti-human IgG or anti-human IgM secondary antibodies were then added and incubated for an additional 20 minutes. Data were collected on a Beckman Coulter CYTOFLEX® cytometer and analyzed in FLOWJO™.
For orientation: A flow cytometer gives signals particle by particle.

The target in test [5] is T1, PD-1 on PD-1 reporter Jurkat cells …. Kind of test: cell-based or functional assay. The source holds these as a separate data set.
Test [6] concerns the target T4, Human PD-1 overexpressed on HEK293 cells (human, UniProt Q15116 25-288).
T4 construct: whole, on cells
Put plainly: flow cytometry on HEK293 cells overexpressing human PD-1, PE anti-human IgG detection. On the procedure: as §2

In test [7] the target is T5, Recombinant human PD-1 extracellular domain (with an immunoglobulin Fc region or a His tag) (human, UniProt Q15116 25-170).
T5 construct: extracellular domain; Coated on ELISA plates; not shown: either an immunoglobulin Fc region or a His tag
T5 sequence (Q15116 25-170): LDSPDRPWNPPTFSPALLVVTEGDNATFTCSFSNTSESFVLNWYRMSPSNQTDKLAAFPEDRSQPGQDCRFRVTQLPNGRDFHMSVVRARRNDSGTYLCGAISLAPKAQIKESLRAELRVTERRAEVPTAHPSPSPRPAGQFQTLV
Kind of test: ELISA, plate-coated recombinant PD-1 extracellular domain, HRP anti-human IgG detection. On the procedure: as §1
(In general: ELISA stands for enzyme-linked immunosorbent assay.)

For test [8], the target named is T1, PD-1 on PD-1 reporter Jurkat cells …. Kind of test: cell-based or functional assay. The source holds these as a separate data set.
The target in test [9] is T5, Recombinant human PD-1 extracellular …. Kind of test: ELISA, plate-coated recombinant PD-1 extracellular domain, HRP anti-human IgM detection. On the procedure:
as §1

T1 sequence (Q15116 25-288): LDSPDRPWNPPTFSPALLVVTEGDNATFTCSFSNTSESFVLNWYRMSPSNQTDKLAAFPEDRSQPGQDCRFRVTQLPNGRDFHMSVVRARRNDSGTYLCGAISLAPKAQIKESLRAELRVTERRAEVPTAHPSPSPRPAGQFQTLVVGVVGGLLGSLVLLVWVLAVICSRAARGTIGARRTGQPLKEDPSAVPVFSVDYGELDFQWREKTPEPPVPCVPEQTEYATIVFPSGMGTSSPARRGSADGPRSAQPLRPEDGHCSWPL
T4 sequence (Q15116 25-288): as above

B1: Anti-PD-1 IgG #3 (antibody, V domains shown)
VH: QVQLVQSGAEVKKPGASVKVSCKVSGYSLSKYDMSWVRQAPGKGLEWMGIIYTSGYTDYAQKFQGRVTMTEDTSTDTAYMELSSLRSEDTAVYYCATGNPYYTNGFNSWGQGTLVTVSS
VL: DIQMTQSPSSLSASVGDRVTITCQASQSPNNLLAWYQQKPGKAPKLLIYGASDLPSGVPSRFSGSGSGTDFTLTISSLQPEDFATYYCQNNYYVGPVSYAFGGGTKVEIK
Turning to B1, in test [1], the “PD-1 Signaling EC50 (second incubation at 4 C), IgG” value was 0.19 nM and the “PD-1 Signaling EC50 (second incubation at 4 C), IgG/xlink (crosslinked IgG)” value was 0.19 nM. Further, in test [2], the “PD-1 Signaling EC50 (method of Example 8), IgG” value worked out at 0.26 nM and the “PD-1 Signaling EC50 (method of Example 8), IgG/xlink (crosslinked IgG)” value turned out to be 0.79 nM.

B2: Anti-PD-1 Hexameric IgM (IgHM) #3 (antibody, V domains shown)
VH: B1 VH
VL: B1 VL
With B2, the “PD-1 Signaling EC50 (method of Example 8), IgHM” value (“PD-1 Signaling EC50 … IgHM” below) in test [2] turned out to be 0.2 nM.

B3: Anti-PD-1 IgM #3 (antibody)
VH: B1 VH
VL: B1 VL
chain: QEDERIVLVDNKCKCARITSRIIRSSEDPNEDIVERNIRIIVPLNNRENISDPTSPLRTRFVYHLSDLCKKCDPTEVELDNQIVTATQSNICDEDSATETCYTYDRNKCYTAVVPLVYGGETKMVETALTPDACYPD
In the case of B3, the “PD-1 Signaling EC50 (second incubation at 4 C), IgM” value in test [1] stood at 0.065 nM. Moreover, in [2], the “PD-1 Signaling EC50 (method of Example 8), IgM” value came to 0.13 nM.

B4: Anti-PD-1 IgG #4 (antibody, V domains shown)
VH: QVQLVQSGSELKKPGASVKVSCKASGYTFTDYSMHWVRQAPGQGLEWMGWINIETGEPTYAQGFTGRFVFSLDTSVSTAYLQISSLKAEDTAVYFCARDYYGTYFYAMDYWGQGTLVTVSS
VL: EIVLTQSPATLSLSPGERATLSCTASSSVSSSYLHWYQQKPGLAPRLLIYSTSNLASGIPDRFSGSGSGTDYTLTISRLEPEDFAVYYCHQYHRSPLTFGQGTKLEIK
As to B4, in test [1], the “PD-1 Signaling EC50 (second incubation at 4 C), IgG” value was 0.89 nM and the “PD-1 Signaling EC50 (second incubation at 4 C), IgG/xlink (crosslinked IgG)” value stood at 1.7 nM.

B5: Anti-PD-1 IgM #4 (antibody)
VH: B4 VH
VL: B4 VL
chain: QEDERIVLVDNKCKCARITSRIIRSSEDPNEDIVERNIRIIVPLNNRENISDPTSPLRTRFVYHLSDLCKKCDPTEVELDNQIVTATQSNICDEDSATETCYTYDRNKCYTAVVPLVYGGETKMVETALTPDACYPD
In the case of B5, the “PD-1 Signaling EC50 (second incubation at 4 C), IgM” value in test [1] was 1.1 nM.

B6: Anti-PD-1 pentameric IgM #5 (antibody)
VH: QVQLVESGGGVVQPGRSLRLDCKASGITFSNSGMHWVRQAPGKGLEWVAVIWYDGSKRYYADSVKGRFTISRDNSKNTLFLQMNSLRAEDTAVYYCATNDDYWGQGTLVTVSS
VL: EIVLTQSPATLSLSPGERATLSCRASQSVSSYLAWYQQKPGQAPRLLIYDASNRATGIPARFSGSGSGTDFTLTISSLEPEDFAVYYCQQSSNWPRTFGQGTKVEIK
chain: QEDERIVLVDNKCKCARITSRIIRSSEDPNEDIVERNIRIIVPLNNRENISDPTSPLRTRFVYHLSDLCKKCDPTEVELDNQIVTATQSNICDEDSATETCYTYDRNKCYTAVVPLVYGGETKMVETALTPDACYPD
Turning to B6, the “PD-1 Signaling EC50 (method of Example 8), IgM” value in [2] is 0.03 nM.

B7: Anti-PD-1 IgG #2 (antibody, V domains shown)
VH: QVQLQESGPGVVKPSGTLSLTCAISGGSIGSGGSIRSTRWWSWVRQSPGKGLEWIGEIYHSGSTNYNPSLKSRVTISLDKSRNHFSLRLNSVTAADTAVYYCARQDYGDSGDWYFDLWGKGTMVTVSS
VL: NFMLTQPHSVSESPGKTVTISCTRSSGSIASNSVQWYQQRPGSSPTTVIYEDNQRPSGVPDRFSGSIDSSSNSASLTVSGLKTEDEADYYCQSSDSSAVVFGSGTKLTVL
notes: IgG format; In the 'IgG/xlink' columns it was crosslinked 1:1 with goat anti-human IgG F(ab')2 fragment; also called Antibody #2 (IgG format); #2 IgG
On to B7, for which the binding result in test [3] is “no binding”. In addition, the binding result in test [4] was “no binding”. Besides, the “PD-1 Signaling EC50, IgG/xlink (IgG crosslinked 1:1 with goat anti-human IgG F(ab')2 fragment)” value in test [5] is 4.8 nM. Moreover, in test [1], the “PD-1 Signaling EC50 (second incubation at 4 C), IgG” value was determined as 5.9 nM and the “PD-1 Signaling EC50 (second incubation at 4 C), IgG/xlink (crosslinked IgG)” value was found to be 2.1 nM. Moreover, the response in [6] was half-maximal at 2.9 nM (EC50). For the same molecule, the EC50 in test [7] was determined as 0.6 nM. Moreover, in [2], the “PD-1 Signaling EC50 (method of Example 8), IgG” value came out at 22 nM and the “PD-1 Signaling EC50 (method of Example 8), IgG/xlink (crosslinked IgG)” value turned out to be 3.8 nM.

B8: Anti-PD-1 Hexameric IgM (IgHM) #2 (antibody, V domains shown)
VH: B7 VH
VL: B7 VL
For B8, the “PD-1 Signaling EC50 … IgHM” value in test [2] was 0.4 nM.

B9: Anti-PD-1 IgM #2 (antibody)
VH: B7 VH
VL: B7 VL
chain: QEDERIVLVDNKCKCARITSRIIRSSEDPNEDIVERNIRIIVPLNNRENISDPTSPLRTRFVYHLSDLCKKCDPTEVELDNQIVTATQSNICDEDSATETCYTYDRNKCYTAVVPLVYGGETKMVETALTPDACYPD
notes: also called Antibody #2 (IgM format); pentameric IgM #2
As for B9, in test [8], the “PD-1 Signaling EC50 (PATHHUNTER Checkpoint Signaling Assay, reporter Jurkat cells), IgM” value was 0.72 nM. Besides, the binding result in [3] and in test [4] was “no binding” each time. Besides, the “PD-1 Signaling EC50 (second incubation at 4 C), IgM” value in test [1] stood at 0.1 nM. In addition, in [9], the EC50 is 0.35 nM. In addition, the “PD-1 Signaling EC50 (method of Example 8), IgM” value in [2] stood at 0.29 nM.

B10: Anti-PD-1 IgG #1 (antibody, V domains shown)
VH: EVQLQESGPGLVKPSQTLSLTCTVTGYSITSDYAWNWIRQPPGKKLEWMGYINYSGSTSYNPSLKSRVTISRDTSKNQFSLKLSSVTAADTAVYYCARWIGSSAWYFDVWGQGTLVTVS
VL: DVLMTQTPLSLSVTPGQPASISCRSGQNIVHSNGNTYLEWYLQKPGQSPKLLIYKVSNRFFGVPDRISGSGSGTDFTLKISRVEAEDVGVYFCFQGSHVPFTFGQGTKLEIK
notes: IgG format; In the 'IgG/xlink' columns it was crosslinked 1:1 with goat anti-human IgG F(ab')2 fragment; also called Antibody #1 (IgG format)
Take B10: the “PD-1 Signaling EC50 (PATHHUNTER Checkpoint Signaling Assay, reporter Jurkat cells), IgG” value in [8] is 65 nM. Also, the binding result in test [3] and in [4] was “no binding” each time. Further, the “PD-1 Signaling EC50, IgG/xlink (IgG crosslinked 1:1 with goat anti-human IgG F(ab')2 fragment)” value in [5] turned out to be 0.65 nM. In addition, the “PD-1 Signaling EC50 (second incubation at 4 C), IgG” value in [1] worked out at 29 nM. The “PD-1 Signaling EC50 (second incubation at 4 C), IgG/xlink (crosslinked IgG)” value in [1] amounted to 4.4 nM. Further, the results for the EC50 in test [6] and in test [7] were 59 nM and 1.5 nM, respectively. Besides, in test [2], the “PD-1 Signaling EC50 (method of Example 8), IgG” value was 85 nM. In test [2], the “PD-1 Signaling EC50 (method of Example 8), IgG/xlink (crosslinked IgG)” value worked out at 1.8 nM.

B11: Anti-PD-1 Hexameric IgM (IgHM) #1 (antibody, V domains shown)
VH: B10 VH
VL: B10 VL
On to B11, for which the “PD-1 Signaling EC50 … IgHM” value in [2] was 0.07 nM.

What is called EC50 is the concentration that produces a half-maximal response.
